Results on 45 molecules are retold here after US20080044360A1 (COLLAGEN MEDICAL, published 2008).

Bridge positions count the residues as written; N and C are the ends. Square brackets hold non-standard residues; d marks the D form. Ends that are not written are not given here. NMeA = CN[C@@H](C)C(=O)O; Sar = CNCC(=O)O

B1: SEQ ID NO 105 (peptide)
peptide: YHACYQ[NMeA]GCWIW
modifications: disulfide 4-9 (inferred)
notes: cyclic, disulfide; also called YHACYQA'GCWIW
B2: SEQ ID NO 159 (peptide)
peptide: YHACYQAG[dC]WIW
modifications: disulfide 4-9 (inferred); not fully specified (C-terminus); printed as YHACYQAGcWIW
notes: cyclic, disulfide
B3: SEQ ID NO 167 (peptide)
peptide: QWT[dC]SGDEYTWHCNYE
modifications: disulfide 4-13 (inferred); not fully specified (N-terminus, C-terminus); printed as QWTcSGDEYTWHCNYE
notes: cyclic, disulfide
B4: SEQ ID NO 174 (peptide)
peptide: QWTCSGDEYTW[dH]CNYE
modifications: disulfide 4-13 (inferred); not fully specified (N-terminus); printed as QWTCSGDEYTWhCNYE
notes: cyclic, disulfide

T1 sequence (P02452 162-1218 limits assumed, chain 1 of 2): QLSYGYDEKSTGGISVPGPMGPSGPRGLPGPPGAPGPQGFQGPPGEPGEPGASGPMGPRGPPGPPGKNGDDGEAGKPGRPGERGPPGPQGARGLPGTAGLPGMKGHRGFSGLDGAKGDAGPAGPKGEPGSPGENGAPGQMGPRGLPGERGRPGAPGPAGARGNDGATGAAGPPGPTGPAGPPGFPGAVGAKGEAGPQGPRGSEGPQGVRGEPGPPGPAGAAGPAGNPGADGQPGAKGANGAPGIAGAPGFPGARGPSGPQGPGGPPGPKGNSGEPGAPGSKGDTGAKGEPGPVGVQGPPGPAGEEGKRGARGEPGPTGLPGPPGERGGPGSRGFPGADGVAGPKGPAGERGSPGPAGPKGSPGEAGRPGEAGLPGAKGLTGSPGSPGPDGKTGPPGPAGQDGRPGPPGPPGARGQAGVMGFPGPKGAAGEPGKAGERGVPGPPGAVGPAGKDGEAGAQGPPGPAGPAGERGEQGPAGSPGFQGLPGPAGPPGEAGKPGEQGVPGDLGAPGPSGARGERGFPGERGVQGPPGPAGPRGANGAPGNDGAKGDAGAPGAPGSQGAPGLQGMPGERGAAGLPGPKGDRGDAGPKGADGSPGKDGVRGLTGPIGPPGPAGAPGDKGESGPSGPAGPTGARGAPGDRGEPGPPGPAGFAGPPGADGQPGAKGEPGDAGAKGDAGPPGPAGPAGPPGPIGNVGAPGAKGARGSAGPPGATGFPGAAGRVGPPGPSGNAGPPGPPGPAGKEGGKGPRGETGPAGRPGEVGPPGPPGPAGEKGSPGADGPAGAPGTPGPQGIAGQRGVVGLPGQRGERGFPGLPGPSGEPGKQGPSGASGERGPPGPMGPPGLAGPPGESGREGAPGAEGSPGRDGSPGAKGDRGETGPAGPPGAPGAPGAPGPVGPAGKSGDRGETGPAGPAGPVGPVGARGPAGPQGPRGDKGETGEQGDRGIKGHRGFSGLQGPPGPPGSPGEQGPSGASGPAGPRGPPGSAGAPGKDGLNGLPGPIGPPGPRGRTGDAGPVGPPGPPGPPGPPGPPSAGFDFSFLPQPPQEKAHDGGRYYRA
T1 sequence (P08123 80-1119 limits assumed, chain 2 of 2): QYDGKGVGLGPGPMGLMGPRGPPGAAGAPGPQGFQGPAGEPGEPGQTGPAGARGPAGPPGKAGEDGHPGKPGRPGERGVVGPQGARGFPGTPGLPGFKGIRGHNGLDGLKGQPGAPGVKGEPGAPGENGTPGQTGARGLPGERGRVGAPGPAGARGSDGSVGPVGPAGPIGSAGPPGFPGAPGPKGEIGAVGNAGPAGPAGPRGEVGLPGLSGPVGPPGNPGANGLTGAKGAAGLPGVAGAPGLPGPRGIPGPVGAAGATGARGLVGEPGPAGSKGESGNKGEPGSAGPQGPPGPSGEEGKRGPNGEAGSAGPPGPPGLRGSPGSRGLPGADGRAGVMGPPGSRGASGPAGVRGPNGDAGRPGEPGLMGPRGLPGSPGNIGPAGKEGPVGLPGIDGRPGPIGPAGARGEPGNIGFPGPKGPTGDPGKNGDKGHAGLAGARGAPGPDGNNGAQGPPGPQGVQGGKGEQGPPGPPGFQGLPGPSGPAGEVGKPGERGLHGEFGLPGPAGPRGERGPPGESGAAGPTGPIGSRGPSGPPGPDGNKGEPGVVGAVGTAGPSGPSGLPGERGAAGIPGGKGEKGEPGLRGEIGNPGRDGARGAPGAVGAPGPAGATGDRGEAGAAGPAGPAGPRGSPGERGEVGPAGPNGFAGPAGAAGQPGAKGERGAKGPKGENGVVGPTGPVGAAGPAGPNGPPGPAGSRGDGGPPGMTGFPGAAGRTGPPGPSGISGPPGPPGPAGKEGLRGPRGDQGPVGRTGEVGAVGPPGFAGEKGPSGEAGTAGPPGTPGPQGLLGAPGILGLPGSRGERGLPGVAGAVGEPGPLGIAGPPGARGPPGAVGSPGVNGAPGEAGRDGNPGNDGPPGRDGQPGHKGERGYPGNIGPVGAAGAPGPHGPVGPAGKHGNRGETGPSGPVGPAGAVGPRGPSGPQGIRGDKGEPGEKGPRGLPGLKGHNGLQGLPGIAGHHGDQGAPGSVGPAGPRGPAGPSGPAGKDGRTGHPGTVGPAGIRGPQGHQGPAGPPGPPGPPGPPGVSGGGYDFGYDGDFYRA

The first test addresses T1, human collagen type I, acid soluble, extracted from placenta (Sigma C7774) (human, UniProt P02452 162-1218; P08123 80-1119).
T1 construct: tissue extract, gelled and dried in wells; also called dried human collagen; h-Collagen
The test can be described thus: dried collagen assay. On the procedure: (§1) An additional 90 μL is reserved in a HPLC glass vial as a measure of the total concentration.
Turning to TWACGWTTTGWDNCRWI (disulfide 4-14 (inferred), cyclic, disulfide) [SEQ ID NO 92], the “% bound” value was 34%.

On to ERNCVLNDFRWTCGGD (disulfide 4-13 (inferred), cyclic, disulfide) [SEQ ID NO 75], for which the “% bound” value came out at 10%.

For the molecule TWACDLDEYGGWQCYTG (disulfide 4-14 (inferred), cyclic, disulfide) [SEQ ID NO 78], the “% bound” value was found to be 8%.

On to TWACGWTTTGWDNCRWI (disulfide 4-14 (inferred), cyclic, disulfide) [SEQ ID NO 90], for which the “% bound” value was found to be 34%.

On to TWACGWTTAGWDNCRWI (disulfide 4-14 (inferred), cyclic, disulfide) [SEQ ID NO 91], for which the “% bound” value is 28%.

For the molecule B1, the “% bound” value is 9%.

On to GQWTCSGDEYTWHCNYE (disulfide 5-14 (inferred), cyclic, disulfide) [SEQ ID NO 122], for which the “% bound” value was 71%.

On to PWTCSGDEYAWHCNY[dE] (disulfide 4-13 (inferred), cyclic, disulfide) [SEQ ID NO 121], for which the “% bound” value came to 57%.

GQWTCSGDAYTWHCNYE (disulfide 5-14 (inferred); not fully specified (C-terminus), cyclic, disulfide) [SEQ ID NO 144]: the “% bound” value was 87%.

On to GQWTCSGDEATWHCNYE (disulfide 5-14 (inferred); not fully specified (C-terminus), cyclic, disulfide) [SEQ ID NO 145], for which the “% bound” value is 68%.

Take GQATCSGDEYTWHCNYE (disulfide 5-14 (inferred), cyclic, disulfide) [SEQ ID NO 139]: the “% bound” value is 1%.

In the case of GQWTCAGDEYTWHCNYE (disulfide 5-14 (inferred), cyclic, disulfide) [SEQ ID NO 141], the “% bound” value was 87%.

Turning to GQWTCSGDEYTWSCNYE (disulfide 5-14 (inferred), cyclic, disulfide) [SEQ ID NO 127], the “% bound” value was determined as 80%.

With DWTCSGDPYTWHCNYE (disulfide 4-13 (inferred), cyclic, disulfide) [SEQ ID NO 115], the “% bound” value was found to be 39%.

With GQWTCSGDEYAWHCNY[dE] (disulfide 5-14 (inferred), cyclic, disulfide) [SEQ ID NO 126], the “% bound” value came to 68%.

With DWTCSGDEFTWHCNYE (disulfide 4-13 (inferred), cyclic, disulfide) [SEQ ID NO 119], the “% bound” value worked out at 55%.

As to DWTCSGDEYAWHCNY[dE] (disulfide 4-13 (inferred), cyclic, disulfide) [SEQ ID NO 120], the “% bound” value stood at 38%.

For the molecule GQWTCSGAEYTWHCNYE (disulfide 5-14 (inferred), cyclic, disulfide) [SEQ ID NO 143], the “% bound” value is 66%.

Consider SWYCDWDDRKGWMCGSD (disulfide 4-14 (inferred), cyclic, disulfide) [SEQ ID NO 86], for which the “% bound” value came out at 2%.

With SWHCALVENSWQCSEA (disulfide 4-13 (inferred), cyclic, disulfide) [SEQ ID NO 73], the “% bound” value was determined as 1%.

With YHASYQAGSWIW (printed without cysteines (S for C)) [SEQ ID NO 111], the “% bound” value came out at 0%.

Regarding YSACYQAGCWIW (disulfide 4-9 (inferred), cyclic, disulfide) [SEQ ID NO 109], the “% bound” value was found to be 21%.

In the case of YHACYQAGCWIA (disulfide 4-9 (inferred), cyclic, disulfide) [SEQ ID NO 138], the “% bound” value worked out at 2%.

On to AHACYQAGCWIW (disulfide 4-9 (inferred), cyclic, disulfide) [SEQ ID NO 131], for which the “% bound” value is 7%.

YHACYAAGCWIW (disulfide 4-9 (inferred), cyclic, disulfide) [SEQ ID NO 134]: the “% bound” value worked out at 14%.

Regarding YHACYQAACWIW (disulfide 4-9 (inferred), cyclic, disulfide) [SEQ ID NO 135], the “% bound” value is 72%.

On to GWQCQGTDSLDWKCLYM (disulfide 4-14 (inferred), cyclic, disulfide) [SEQ ID NO 77], for which the “% bound” value was determined as 12%.

As to FWTCELDFRQSWYCYDK (disulfide 4-14 (inferred), cyclic, disulfide) [SEQ ID NO 79], the “% bound” value was 8%.

For EWHCVFIQGDWLCNSG (disulfide 4-13 (inferred), cyclic, disulfide) [SEQ ID NO 72], the “% bound” value is 1%.

Consider WTCSGDEYTWHCNYE (disulfide 3-12 (inferred), cyclic, disulfide) [SEQ ID NO 114], for which the “% bound” value is 19%.

Turning to KWHCELDSHMEWSCSGH (disulfide 4-14 (inferred), cyclic, disulfide) [SEQ ID NO 89], the “% bound” value turned out to be 1%.

In the case of TWMCVDPPLWRCWVQ (disulfide 4-12 (inferred), cyclic, disulfide) [SEQ ID NO 4], the “% bound” value turned out to be 45%.

Turning to YHACYQA[Sar]CWIW (disulfide 4-9 (inferred), cyclic, disulfide) [SEQ ID NO 104], the “% bound” value amounted to 12%.

On to YHACYQAGCWIY (disulfide 4-9 (inferred), cyclic, disulfide) [SEQ ID NO 106], for which the “% bound” value was determined as 9%.

Turning to YHACYQAGCAIW (disulfide 4-9 (inferred), cyclic, disulfide) [SEQ ID NO 136], the “% bound” value was determined as 2%.

For the molecule YSACYQAGCYIY (disulfide 4-9 (inferred), cyclic, disulfide) [SEQ ID NO 110], the “% bound” value amounted to 10%.

On to YAACYQAGCWIW (disulfide 4-9 (inferred), cyclic, disulfide) [SEQ ID NO 132], for which the “% bound” value amounted to 53%.

HWTCDQAKGGAWSCSST (disulfide 4-14 (inferred), cyclic, disulfide) [SEQ ID NO 87]: the “% bound” value was 1%.

Turning to FWTCMRDQVGEWHCGTE (disulfide 4-14 (inferred), cyclic, disulfide) [SEQ ID NO 88], the “% bound” value is 1%.

Take FGACDIFPTFHTCPGV (disulfide 4-13 (inferred), cyclic, disulfide) [SEQ ID NO 76]: the “% bound” value came to 1%.

Another test deals with T2, rat collagen, acid soluble, type I, rat tail (Upstate 08-115) (rat, UniProt P02454 152-1207; P02466 86-1125).
T2 construct: tissue extract, gelled and dried in wells; also called dried rat collagen
T2 sequence (P02454 152-1207, chain 1 of 2): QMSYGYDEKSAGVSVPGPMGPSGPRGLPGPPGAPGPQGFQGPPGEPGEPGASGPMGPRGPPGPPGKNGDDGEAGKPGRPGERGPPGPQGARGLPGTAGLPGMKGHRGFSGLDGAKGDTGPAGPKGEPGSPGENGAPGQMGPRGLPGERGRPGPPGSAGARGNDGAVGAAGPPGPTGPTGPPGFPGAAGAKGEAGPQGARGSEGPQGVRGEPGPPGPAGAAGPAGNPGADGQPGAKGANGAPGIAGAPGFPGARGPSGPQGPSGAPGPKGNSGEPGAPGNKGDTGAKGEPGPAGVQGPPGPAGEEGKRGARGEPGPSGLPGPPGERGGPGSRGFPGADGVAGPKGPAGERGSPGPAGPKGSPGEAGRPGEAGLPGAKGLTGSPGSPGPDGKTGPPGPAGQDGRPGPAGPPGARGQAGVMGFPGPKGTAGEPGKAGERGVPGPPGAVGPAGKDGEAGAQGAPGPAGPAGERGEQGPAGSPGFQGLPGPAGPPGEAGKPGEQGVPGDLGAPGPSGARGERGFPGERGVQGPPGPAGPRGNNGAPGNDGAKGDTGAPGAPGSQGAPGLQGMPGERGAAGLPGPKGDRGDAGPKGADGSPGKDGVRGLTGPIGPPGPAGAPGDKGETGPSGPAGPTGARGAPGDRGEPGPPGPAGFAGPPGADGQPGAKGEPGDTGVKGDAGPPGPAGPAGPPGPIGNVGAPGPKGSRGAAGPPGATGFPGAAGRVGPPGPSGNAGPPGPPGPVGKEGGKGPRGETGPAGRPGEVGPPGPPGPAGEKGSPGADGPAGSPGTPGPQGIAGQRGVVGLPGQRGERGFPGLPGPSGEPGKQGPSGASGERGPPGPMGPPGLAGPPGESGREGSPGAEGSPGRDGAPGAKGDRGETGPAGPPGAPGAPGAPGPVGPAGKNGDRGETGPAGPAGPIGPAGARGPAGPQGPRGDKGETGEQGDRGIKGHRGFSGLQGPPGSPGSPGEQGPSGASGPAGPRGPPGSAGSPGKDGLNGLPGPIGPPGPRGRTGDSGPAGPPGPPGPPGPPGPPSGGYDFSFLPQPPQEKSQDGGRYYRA
T2 sequence (P02466 86-1125, chain 2 of 2): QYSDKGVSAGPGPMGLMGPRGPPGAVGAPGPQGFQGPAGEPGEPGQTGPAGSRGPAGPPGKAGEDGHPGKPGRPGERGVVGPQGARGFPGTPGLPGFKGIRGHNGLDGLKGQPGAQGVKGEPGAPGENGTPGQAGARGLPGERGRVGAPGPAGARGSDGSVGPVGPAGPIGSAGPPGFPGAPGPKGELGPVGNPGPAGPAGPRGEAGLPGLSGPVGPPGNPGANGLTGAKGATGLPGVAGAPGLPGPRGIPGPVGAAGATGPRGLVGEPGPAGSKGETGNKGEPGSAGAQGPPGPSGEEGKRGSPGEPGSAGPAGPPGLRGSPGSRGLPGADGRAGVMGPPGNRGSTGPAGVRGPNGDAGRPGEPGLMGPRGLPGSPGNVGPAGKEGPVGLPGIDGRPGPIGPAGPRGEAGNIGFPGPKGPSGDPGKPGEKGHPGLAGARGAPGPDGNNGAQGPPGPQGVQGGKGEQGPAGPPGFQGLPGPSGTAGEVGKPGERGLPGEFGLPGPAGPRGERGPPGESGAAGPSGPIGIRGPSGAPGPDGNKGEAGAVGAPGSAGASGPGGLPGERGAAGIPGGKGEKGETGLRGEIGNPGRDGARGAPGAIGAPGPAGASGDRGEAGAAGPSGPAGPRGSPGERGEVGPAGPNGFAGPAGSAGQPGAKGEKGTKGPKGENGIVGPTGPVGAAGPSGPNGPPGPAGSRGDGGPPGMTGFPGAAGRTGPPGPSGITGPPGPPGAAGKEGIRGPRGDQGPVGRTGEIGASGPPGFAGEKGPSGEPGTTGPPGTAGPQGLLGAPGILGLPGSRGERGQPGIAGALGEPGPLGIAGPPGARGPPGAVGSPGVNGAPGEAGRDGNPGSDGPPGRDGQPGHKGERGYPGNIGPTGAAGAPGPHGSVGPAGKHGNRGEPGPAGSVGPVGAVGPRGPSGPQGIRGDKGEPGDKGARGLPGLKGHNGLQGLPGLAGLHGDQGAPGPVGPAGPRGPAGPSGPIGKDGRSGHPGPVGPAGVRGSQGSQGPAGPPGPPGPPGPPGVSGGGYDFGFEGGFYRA
The test can be described thus: dried collagen assay. The procedure: as §1
Take B1: the “% bound” value came out at 23%.

Regarding GQWTCSGDEYTWHCNYE (disulfide 5-14 (inferred), cyclic, disulfide) [SEQ ID NO 122], the “% bound” value is 71%.

Turning to PWTCSGDEYAWHCNY[dE] (disulfide 4-13 (inferred), cyclic, disulfide) [SEQ ID NO 121], the “% bound” value was determined as 72%.

Take GQWTCSGDEYTAHCNYE (disulfide 5-14 (inferred); not fully specified (C-terminus), cyclic, disulfide) [SEQ ID NO 147]: the “% bound” value turned out to be 1%.

In the case of GQWTCSGDAYTWHCNYE (disulfide 5-14 (inferred); not fully specified (C-terminus), cyclic, disulfide) [SEQ ID NO 144], the “% bound” value is 77%.

Turning to GQWTCSGDEATWHCNYE (disulfide 5-14 (inferred); not fully specified (C-terminus), cyclic, disulfide) [SEQ ID NO 145], the “% bound” value is 50%.

For GQATCSGDEYTWHCNYE (disulfide 5-14 (inferred), cyclic, disulfide) [SEQ ID NO 139], the “% bound” value came out at 0%.

Regarding GQWTCAGDEYTWHCNYE (disulfide 5-14 (inferred), cyclic, disulfide) [SEQ ID NO 141], the “% bound” value was 83%.

For the molecule GQWTCSGDEYTWSCNYE (disulfide 5-14 (inferred), cyclic, disulfide) [SEQ ID NO 127], the “% bound” value was determined as 73%.

DWTCSGDPYTWHCNYE (disulfide 4-13 (inferred), cyclic, disulfide) [SEQ ID NO 115]: the “% bound” value amounted to 23%.

Regarding GQWTCSGDEYAWHCNY[dE] (disulfide 5-14 (inferred), cyclic, disulfide) [SEQ ID NO 126], the “% bound” value stood at 73%.

As for DWTCSGDEFTWHCNYE (disulfide 4-13 (inferred), cyclic, disulfide) [SEQ ID NO 119], the “% bound” value is 55%.

On to DWTCSGDEYAWHCNY[dE] (disulfide 4-13 (inferred), cyclic, disulfide) [SEQ ID NO 120], for which the “% bound” value turned out to be 28%.

Turning to GQWTCSGAEYTWHCNYE (disulfide 5-14 (inferred), cyclic, disulfide) [SEQ ID NO 143], the “% bound” value is 51%.

On to B2, for which the “% bound” value stood at 27%.

For YHASYQAGSWIW (printed without cysteines (S for C)) [SEQ ID NO 111], the “% bound” value amounted to 24%.

On to YSACYQAGCWIW (disulfide 4-9 (inferred), cyclic, disulfide) [SEQ ID NO 109], for which the “% bound” value amounted to 37%.

YHACYQAGCWIA (disulfide 4-9 (inferred), cyclic, disulfide) [SEQ ID NO 138]: the “% bound” value came out at 1%.

Consider AHACYQAGCWIW (disulfide 4-9 (inferred), cyclic, disulfide) [SEQ ID NO 131], for which the “% bound” value was 12%.

YHACYAAGCWIW (disulfide 4-9 (inferred), cyclic, disulfide) [SEQ ID NO 134]: the “% bound” value worked out at 1%.

For YHACYQAACWIW (disulfide 4-9 (inferred), cyclic, disulfide) [SEQ ID NO 135], the “% bound” value worked out at 88%.

Take WTCSGDEYTWHCNYE (disulfide 3-12 (inferred), cyclic, disulfide) [SEQ ID NO 114]: the “% bound” value is 14%.

In the case of B3, the “% bound” value stood at 0%.

For the molecule B4, the “% bound” value was found to be 0%.

YHACYQA[Sar]CWIW (disulfide 4-9 (inferred), cyclic, disulfide) [SEQ ID NO 104]: the “% bound” value is 19%.

With YHACYQAGCWIY (disulfide 4-9 (inferred), cyclic, disulfide) [SEQ ID NO 106], the “% bound” value is 24%.

Consider YHACYQAGCYIY (disulfide 4-9 (inferred), cyclic, disulfide) [SEQ ID NO 108], for which the “% bound” value came to 12%.

For YHACYQAGCAIW (disulfide 4-9 (inferred), cyclic, disulfide) [SEQ ID NO 136], the “% bound” value stood at 2%.

Take YSACYQAGCYIY (disulfide 4-9 (inferred), cyclic, disulfide) [SEQ ID NO 110]: the “% bound” value amounted to 2%.

In the case of YAACYQAGCWIW (disulfide 4-9 (inferred), cyclic, disulfide) [SEQ ID NO 132], the “% bound” value was 37%.
